The data set addresses T1, AgrA (6xHis-SaAgrA) (Staphylococcus aureus, UniProt Q5HEG2 1-238).
T1 sequence: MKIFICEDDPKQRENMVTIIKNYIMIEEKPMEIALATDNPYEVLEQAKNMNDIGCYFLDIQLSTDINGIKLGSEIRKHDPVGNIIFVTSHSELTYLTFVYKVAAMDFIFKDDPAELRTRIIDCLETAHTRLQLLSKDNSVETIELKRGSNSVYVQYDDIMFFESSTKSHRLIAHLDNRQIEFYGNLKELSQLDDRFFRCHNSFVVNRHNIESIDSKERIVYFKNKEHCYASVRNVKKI
Description: SPR; non-CoAlated; ka 5.75e3 1/Ms, kd 1.01e-2 1/s; SPR (Biacore 2000, SA chip, ~500 RU DNA): 20 mM HEPES pH 7.6, 250 mM KCl, 10% glycerol; 30 uL/min; temperature not stated; 1:1 Langmuir fit. The settings on record: protein: recombinant; tags: 6xHis; chain copies: 2; label: 5' biotin (immobilized on SA chip); blunt.

The source of these data is paper PMC8228455, “Redox Regulation of the Quorum-sensing Transcription Factor AgrA by Coenzyme A”.

B1: P2 promoter (dsDNA)
DNA 1: TAACAGTTAAGTATTTATTTCCTACAGTTAGGCA
DNA 2: TGCCTAACTGTAGGAAATAAATACTTAACTGTTA
By Kd is commonly meant a measure of binding affinity in units of concentration. Take B1: the Kd is 1.75 ± 0.58 µM.
